According to patent US12440549B2, “Polyvalent immunogenicity composition for human papillomavirus” (SinoCellTech Ltd., priority 2019, dated 2025):

Experiment: Expression and solubility of L1 protein in insect cells (cell lysate vs supernatant, SDS-PAGE)
Assay type: physicochemical
Conditions: supernatant after centrifugation of lysate
Experimental: FIG. 4: Expression of C-terminal truncated HPV 16L1 (1-474). M: Marker; L: cell lysates; E-S: supernatant collected after centrifugation of the lysates.
High Five cells were infected with baculovirus containing the HPV6 L1: 33C recombinant gene obtained in Example 2 at a ratio of 1:200 (V/V), and the cell precipitate was collected by centrifugation at 1000 g±100 g at room temperature. The cells were broken up by sonication at low temperature for 3 min, centrifuged at >10,000 g for 10 min and the supernatant was collected for SDS-PAGE. Lane 1: Marker (The marker is a mixture of 7 purified proteins with molecular weights ranging from 14.4 kDa to 116 kDa, produced by Thermo Scientific); Lane 2: cell lysate; Lane 3: supernatant of the lysate collected by centrifugation.
The inventors attempted to truncate the C-terminus of HPV16 L1 by 31 amino acids and named it HPV16 L1 (1-474) (SEQ ID NO: 27).

HPV16 L1 (1-474): Comparative example: HPV16 L1 protein with the C-terminus truncated by 31 amino acids
solubility of the expressed L1 protein: very poor solubility
solubility of the expressed L1 protein (listed as HPV 16 L1 (1-474)): poor solubility
